Measured values: US20160002326A1 (AbbVie / Abbott, published 2016)

Tests used:
Assay in all cases: direct ELISA
[1] = target: T1, APRIL (UniProt O75888 105-250)
T1 sequence (looked up): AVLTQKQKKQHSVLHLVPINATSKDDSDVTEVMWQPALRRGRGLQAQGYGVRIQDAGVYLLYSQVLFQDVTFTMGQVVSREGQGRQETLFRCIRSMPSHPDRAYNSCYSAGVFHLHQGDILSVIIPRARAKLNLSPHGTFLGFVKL

[2] = target: T2, lymphotoxin a (UniProt P01374 35-205)
T2 construct: also called lymphotoxin alpha
T2 sequence (looked up): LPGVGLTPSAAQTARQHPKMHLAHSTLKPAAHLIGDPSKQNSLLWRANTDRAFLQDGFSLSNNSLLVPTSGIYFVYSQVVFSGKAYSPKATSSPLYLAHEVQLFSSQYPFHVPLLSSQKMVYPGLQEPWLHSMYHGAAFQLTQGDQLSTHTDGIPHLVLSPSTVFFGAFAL

[3] = target: T3, IL-17D (UniProt Q8TAD2 16-202, limits assumed)
T3 sequence (looked up): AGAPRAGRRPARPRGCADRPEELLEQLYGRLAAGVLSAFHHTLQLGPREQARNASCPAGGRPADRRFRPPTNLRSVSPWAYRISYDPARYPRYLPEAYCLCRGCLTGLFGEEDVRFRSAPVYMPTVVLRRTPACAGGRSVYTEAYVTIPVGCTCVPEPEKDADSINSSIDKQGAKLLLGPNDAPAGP

[4] = target: T4, Fas ligand (UniProt P48023 134-281, limits assumed)
T4 sequence (looked up): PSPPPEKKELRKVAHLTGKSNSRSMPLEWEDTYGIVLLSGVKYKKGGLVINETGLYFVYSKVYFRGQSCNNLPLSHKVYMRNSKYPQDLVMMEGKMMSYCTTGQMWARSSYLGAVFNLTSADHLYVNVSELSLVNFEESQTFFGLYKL

[5] = target: T5, CD30 ligand (UniProt P32971 63-234)
T5 sequence (looked up): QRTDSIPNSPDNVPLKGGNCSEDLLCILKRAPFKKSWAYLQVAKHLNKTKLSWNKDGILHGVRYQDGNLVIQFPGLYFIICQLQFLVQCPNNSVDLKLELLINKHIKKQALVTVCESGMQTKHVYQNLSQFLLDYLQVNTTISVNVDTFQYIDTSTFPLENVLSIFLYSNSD

[6] = target: T6, IL-17B (UniProt Q9UHF5 21-180)
T6 sequence (looked up): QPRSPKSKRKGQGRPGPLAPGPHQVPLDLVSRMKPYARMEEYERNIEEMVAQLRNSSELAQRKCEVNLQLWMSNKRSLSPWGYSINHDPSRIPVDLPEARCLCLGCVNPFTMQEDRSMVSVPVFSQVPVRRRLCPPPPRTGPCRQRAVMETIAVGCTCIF

[7] = target: LIGHT (UniProt O43557 74-240, limits assumed)
LIGHT, sequence (O43557 74-240 limits assumed): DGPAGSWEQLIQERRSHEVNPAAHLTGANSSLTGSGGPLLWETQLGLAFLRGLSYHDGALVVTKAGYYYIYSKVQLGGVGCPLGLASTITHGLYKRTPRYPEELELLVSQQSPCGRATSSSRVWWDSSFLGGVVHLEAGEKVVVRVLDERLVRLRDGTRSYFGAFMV

[8] = target: T7, OX40 ligand (UniProt P23510 51-183)
T7 sequence (looked up): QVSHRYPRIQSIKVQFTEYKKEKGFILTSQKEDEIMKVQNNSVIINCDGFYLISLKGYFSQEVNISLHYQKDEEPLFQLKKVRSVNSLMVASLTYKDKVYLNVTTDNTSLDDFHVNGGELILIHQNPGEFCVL

[9] = target: T8, TL1A (UniProt O95150 72-251)
T8 sequence (looked up): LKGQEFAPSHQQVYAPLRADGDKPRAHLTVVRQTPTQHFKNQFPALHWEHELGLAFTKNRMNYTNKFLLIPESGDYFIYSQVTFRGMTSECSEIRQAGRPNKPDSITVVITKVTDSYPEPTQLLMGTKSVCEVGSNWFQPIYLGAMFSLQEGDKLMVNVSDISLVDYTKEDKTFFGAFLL

[10] = target: T9, EDA-A2 (UniProt Q92838-3 245-389, limits assumed)
T9 sequence (looked up): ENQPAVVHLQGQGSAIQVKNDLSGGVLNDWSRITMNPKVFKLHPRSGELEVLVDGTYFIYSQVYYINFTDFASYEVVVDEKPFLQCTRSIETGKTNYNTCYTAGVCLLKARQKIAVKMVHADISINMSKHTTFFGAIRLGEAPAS

[11] = target: 4-1BB ligand (UniProt P41273 71-254, limits assumed)
4-1BB ligand, sequence (P41273 71-254 limits assumed): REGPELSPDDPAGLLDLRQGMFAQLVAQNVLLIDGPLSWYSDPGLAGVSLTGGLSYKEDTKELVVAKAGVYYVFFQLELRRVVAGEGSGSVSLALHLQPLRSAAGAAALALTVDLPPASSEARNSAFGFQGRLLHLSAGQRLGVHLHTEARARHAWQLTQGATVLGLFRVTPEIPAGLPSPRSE

[12] = target: T10, TWEAK (UniProt O43508 94-249, limits assumed)
T10 sequence (looked up): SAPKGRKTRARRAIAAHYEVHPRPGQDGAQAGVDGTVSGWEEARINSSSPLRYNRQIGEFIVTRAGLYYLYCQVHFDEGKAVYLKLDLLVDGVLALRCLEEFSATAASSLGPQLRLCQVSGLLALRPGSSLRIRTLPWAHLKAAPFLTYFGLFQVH

[13] = target: T11, IL-17E (IL-25) (UniProt Q9H293 33-177)
T11 sequence (looked up): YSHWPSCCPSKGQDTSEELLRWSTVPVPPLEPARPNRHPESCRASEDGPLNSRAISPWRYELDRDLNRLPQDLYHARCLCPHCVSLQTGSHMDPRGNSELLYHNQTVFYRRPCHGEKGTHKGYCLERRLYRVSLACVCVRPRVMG

[14] = target: T12, IL-17C (UniProt Q9P0M4 19-197)
T12 sequence (looked up): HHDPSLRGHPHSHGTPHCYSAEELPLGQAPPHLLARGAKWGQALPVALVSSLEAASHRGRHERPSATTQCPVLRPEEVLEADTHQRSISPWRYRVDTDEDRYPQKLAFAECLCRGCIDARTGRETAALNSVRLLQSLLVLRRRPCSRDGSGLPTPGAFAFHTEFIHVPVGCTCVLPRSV

Measured: binding result

B1: ABBV-257 anti-human TNF and IL-17 DVD-Ig binding protein (bispecific antibody, human IgG1, kappa, L234A L235A)
heavy: EVQLVQSGAEVKKPGASVKVSCKASGYTFANYGIIWVRQAPGQGLEWMGWINTYTGKPTYAQKFQGRVTMTTDTSTSTAYMELSSLRSEDTAVYYCARKLFTTMDVTDNAMDYWGQGTTVTVSSGGGGSGGGGSEVQLVQSGAEVKKPGSSVKVSCKASGYTFTDYEIHWVRQAPGQGLEWMGVNDPESGGTFYNQKFDGRVTLTADESTSTAYMELSSLRSEDTAVYYCTRYSKWDSFDGMDYWGQGTTVTVSSASTKGPSVFPLAPSSKSTSGGTAALGCLVKDYFPEPVTVSWNSGALTSGVHTFPAVLQSSGLYSLSSVVTVPSSSLGTQTYICNVNHKPSNTKVDKKVEPKSCDKTHTCPPCPAPEAAGGPSVFLFPPKPKDQLMISRTPEVTCVVVDVSHEDPEVKFNWYVDGVEVHNAKTKPREEQYNSTYRVVSVLTVLHQDWLNGKEYKCKVSNKALPAPIEKTISKAKGQPREPQVYTLPPSREEMTKNQVSLTCLVKGFYPSDIAVEWESNGQPENNYKTTPPVLDSDGSFFLYSKLTVDKSRWQQGNVFSCSVLHEALHNHYTQKSLSLSPGK
light: DIQMTQSPSSLSASVGDRVTITCRASQDISQYLNWYQQKPGKAPKLLIYYTSRLQSGVPSRFSGSGSGTDFTLTISSLQPEDFATYFCQQGNTWPPTFGQGTKLEIKRGGSGGGGSGDIQMTQSPSSLSASVGDRVTITCRASSGIISYIDWFQQKPGKAPKRLIYATFDLASGVPSRFSGSGSGTDYTLTISSLQPEDFATYYCRQVGSYPETFGQGTKLEIKRTVAAPSVFIFPPSDEQLKSGTASVVCLLNNFYPREAKVQWKVDNALQSGNSQESVTEQDSKDSTYSLSSTLTLSKADYEKHKVYACEVTHQGLSSPVTKSFNRGEC
modifications: N-linked glycans on the heavy chain at the asparagine commonly modified on IgG1 antibodies (fucosylated biantennary oligosaccharides with 0, 1 or 2 galactose residues)
notes: It says the constant region carries L234A, L235A and also T250Q and M428L; also called Anti-IL-17/TNF DVD-Ig Protein
no binding: all assays above
